This series deals with the molecule itself. In words: crystal structure; co-crystal structure of celastrol with mouse GSTP1.

B1: mouse GSTP1 (enzyme, UniProt P19157 1-210, looked up)
chain: MPPYTIVYFPVRGRCEAMRMLLADQGQSWKEEVVTIDTWMQGLLKPTCLYGQLPKFEDGDLTLYQSNAILRHLGRSLGLYGKNQREAAQMDMVNDGVEDLRGKYVTLIYTNYENGKNDYVKALPGHLKPFETLLSQNQGGKAFIVGDQISFADYNLLDLLLIHQVLAPGCLDNFPLLSAYVARLSARPKIKAFLSSPEHVNRPINGNGKQ
notes: GSTP1 (glutathione S-transferase pi 1), mouse; co-crystallised with celastrol; also called GST pi
In the case of B1, the binding result is “binds”.

Source of the values: publication PMC8160069, “Ethacrynic acid targets GSTM1 to ameliorate obesity by promoting browning of white adipocytes” (Protein & Cell, 2020).
